In paper PMC11507893 (bioRxiv, 2024):
Residue numbers refer to the chain shown, from its start.

Experiments:
[1] = biological target: T1, FLAG-tagged Mnl1 (Mnl1-FLAG) (S. cerevisiae, UniProt P38888 21-796); assay: cryo-EM structure
T1 sequence (looked up): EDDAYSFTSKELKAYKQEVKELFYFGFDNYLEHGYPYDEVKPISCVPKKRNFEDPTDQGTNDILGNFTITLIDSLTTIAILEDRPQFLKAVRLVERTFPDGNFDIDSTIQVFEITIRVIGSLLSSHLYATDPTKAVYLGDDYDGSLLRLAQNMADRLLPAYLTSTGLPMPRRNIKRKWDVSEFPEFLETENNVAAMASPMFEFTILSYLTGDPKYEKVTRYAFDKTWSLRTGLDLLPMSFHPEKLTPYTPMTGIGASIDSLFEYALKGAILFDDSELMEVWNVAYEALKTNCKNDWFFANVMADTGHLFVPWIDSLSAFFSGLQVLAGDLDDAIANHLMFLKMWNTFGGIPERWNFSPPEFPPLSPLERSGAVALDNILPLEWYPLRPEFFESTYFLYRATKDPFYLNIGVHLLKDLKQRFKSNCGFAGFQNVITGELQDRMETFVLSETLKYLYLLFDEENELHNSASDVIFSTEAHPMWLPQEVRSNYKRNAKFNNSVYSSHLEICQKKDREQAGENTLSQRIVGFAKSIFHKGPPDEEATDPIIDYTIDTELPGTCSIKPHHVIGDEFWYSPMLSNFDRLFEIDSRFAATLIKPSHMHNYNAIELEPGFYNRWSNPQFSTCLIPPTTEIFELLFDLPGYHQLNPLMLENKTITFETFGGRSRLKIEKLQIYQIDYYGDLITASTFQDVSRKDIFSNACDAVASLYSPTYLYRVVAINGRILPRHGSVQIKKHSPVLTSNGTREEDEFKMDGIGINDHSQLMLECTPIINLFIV

[2] = biological target: T2, Mnl1 mCTD mutant (L655N, F770Y, M772K), FLAG-tagged (S. cerevisiae, UniProt P38888 21-796, L655N | F770Y | M772K); assay: co-IP + SEC
T2 sequence (looked up): T1 sequence (looked up) with L635N, F750Y, M752K

[3] = biological target: T3, Mnl1(C579S), FLAG-tagged (S. cerevisiae, UniProt P38888 21-796, C579S); assay: cross-linking
T3 sequence (looked up): T1 sequence (looked up) with C559S

[4] = biological target: T4, Mnl1(C644S), FLAG-tagged (S. cerevisiae, UniProt P38888 21-796, C644S); assay: cross-linking
T4 sequence (looked up): T1 sequence (looked up) with C624S

Measured: binding result

B1: protein disulfide isomerase (Pdi1) (enzyme, S. cerevisiae, UniProt P17967 29-522, looked up)
chain: PEDSAVVKLATDSFNEYIQSHDLVLAEFFAPWCGHCKNMAPEYVKAAETLVEKNITLAQIDCTENQDLCMEHNIPGFPSLKIFKNSDVNNSIDYEGPRTAEAIVQFMIKQSQPAVAVVADLPAYLANETFVTPVIVQSGKIDADFNATFYSMANKHFNDYDFVSAENADDDFKLSIYLPSAMDEPVVYNGKKADIADADVFEKWLQVEALPYFGEIDGSVFAQYVESGLPLGYLFYNDEEELEEYKPLFTELAKKNRGLMNFVSIDARKFGRHAGNLNMKEQFPLFAIHDMTEDLKYGLPQLSEEAFDELSDKIVLESKAIESLVKDFLKGDASPIVKSQEIFENQDSSVFQLVGKNHDEIVNDPKKDVLVLYYAPWCGHCKRLAPTYQELADTYANATSDVLIAKLDHTENDVRGVVIEGYPTIVLYPGGKKSESVVYQGSRSLDSLFDFIKENGHFDVDGKALYEEAQEKAAEEADADAELADEEDAIHDEL
binds: all assays above
